Patent US20260152727A1
Where “and” joins values, the source holds several entries; their conditions need not be identical. Equal entries are not always repeated.

Target: RSV fusion (F) protein (prefusion F, on recombinant RSV strain A2 virions) (respiratory syncytial virus (strain A2)) (UniProt P03420)
Test: cell-based or functional assay

Sequence of UniProt P03420 (P03420 26-574): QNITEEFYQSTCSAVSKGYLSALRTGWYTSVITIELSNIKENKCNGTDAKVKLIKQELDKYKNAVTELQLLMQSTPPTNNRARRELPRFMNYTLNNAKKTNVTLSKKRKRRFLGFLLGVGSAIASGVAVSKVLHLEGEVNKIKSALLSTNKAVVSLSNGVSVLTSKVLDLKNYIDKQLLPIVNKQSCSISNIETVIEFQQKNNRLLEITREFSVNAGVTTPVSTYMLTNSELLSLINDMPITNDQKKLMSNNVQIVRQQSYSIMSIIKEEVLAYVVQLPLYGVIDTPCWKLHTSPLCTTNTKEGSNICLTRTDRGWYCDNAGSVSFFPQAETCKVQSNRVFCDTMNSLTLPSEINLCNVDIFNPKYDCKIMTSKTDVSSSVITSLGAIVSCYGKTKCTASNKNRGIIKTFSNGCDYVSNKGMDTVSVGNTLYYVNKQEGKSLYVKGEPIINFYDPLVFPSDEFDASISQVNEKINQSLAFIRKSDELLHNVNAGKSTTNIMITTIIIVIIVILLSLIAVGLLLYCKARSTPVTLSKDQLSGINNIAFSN

Question: How did the complete neutralization of 300 PFU of RSV-HRP (HRP signal OD490, HEp-2 cells) turn out when anti-prefusion F antibody D25 was run?
Answer: 370 ng/mL

Question: What about the complete neutralization of 300 PFU of RSV-Lucia (secreted luciferase, luminometer) (antibody dilution (1:x, of 1 mg/ml)) of the same substance?
Answer: 2700

Question: What about the highest dilution at which the antibody negatively impacted RSV infectivity (RSV-Lucia) of the same substance?
Answer: 5 ng/mL and 1.7 ng/mL

Question: What about the highest dilution at which the antibody negatively impacted RSV-HRP infectivity of the same substance?
Answer: 5 ng/mL
